This series addresses T1, Ago1p (WT) (Naumovozyma castellii, UniProt D5SHI8 2-1299).
T1 sequence: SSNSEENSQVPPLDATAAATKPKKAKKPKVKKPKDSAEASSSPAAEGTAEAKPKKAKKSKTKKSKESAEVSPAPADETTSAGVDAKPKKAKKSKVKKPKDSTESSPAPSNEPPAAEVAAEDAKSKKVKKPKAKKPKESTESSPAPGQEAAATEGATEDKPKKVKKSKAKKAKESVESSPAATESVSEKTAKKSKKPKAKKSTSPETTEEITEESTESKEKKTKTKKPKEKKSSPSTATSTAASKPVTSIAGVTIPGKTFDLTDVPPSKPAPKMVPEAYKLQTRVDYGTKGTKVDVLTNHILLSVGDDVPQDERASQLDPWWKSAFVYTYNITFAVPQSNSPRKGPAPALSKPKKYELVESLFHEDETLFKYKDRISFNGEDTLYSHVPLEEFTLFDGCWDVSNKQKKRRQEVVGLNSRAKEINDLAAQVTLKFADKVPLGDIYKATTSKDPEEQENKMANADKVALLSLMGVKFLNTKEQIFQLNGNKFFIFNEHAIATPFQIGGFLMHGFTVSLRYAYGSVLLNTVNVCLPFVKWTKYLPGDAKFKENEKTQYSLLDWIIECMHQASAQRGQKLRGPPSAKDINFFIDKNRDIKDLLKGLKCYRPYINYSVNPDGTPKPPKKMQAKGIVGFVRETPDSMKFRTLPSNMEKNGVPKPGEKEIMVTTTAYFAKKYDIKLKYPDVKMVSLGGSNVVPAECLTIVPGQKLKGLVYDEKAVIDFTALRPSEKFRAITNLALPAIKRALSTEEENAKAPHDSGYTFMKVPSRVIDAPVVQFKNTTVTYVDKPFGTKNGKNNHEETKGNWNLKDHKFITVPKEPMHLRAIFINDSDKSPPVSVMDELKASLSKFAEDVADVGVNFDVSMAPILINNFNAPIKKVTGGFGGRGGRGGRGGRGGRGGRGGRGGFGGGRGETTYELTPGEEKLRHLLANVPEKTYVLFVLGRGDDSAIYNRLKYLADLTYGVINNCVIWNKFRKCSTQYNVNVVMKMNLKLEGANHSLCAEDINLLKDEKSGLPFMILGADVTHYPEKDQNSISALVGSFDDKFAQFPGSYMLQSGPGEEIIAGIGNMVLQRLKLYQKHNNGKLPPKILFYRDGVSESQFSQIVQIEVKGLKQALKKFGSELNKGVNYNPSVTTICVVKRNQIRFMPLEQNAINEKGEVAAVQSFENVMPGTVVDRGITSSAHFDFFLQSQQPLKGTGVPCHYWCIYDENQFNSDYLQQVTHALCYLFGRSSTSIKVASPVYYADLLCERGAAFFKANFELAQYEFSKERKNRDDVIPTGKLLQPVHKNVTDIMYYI
The series can be described thus: filter binding (nitrocellulose-nylon); preincubated with 200 nM WT Xrn1p: bound siRNA enhanced; 50 mM Hepes pH 7.6, 300 mM potassium glutamate, 10 mM NaCl, 5 mM Mg acetate, 1 mM EGTA, 1 mM EDTA, 10% glycerol, 0.01% NP-40, 5 mM DTT, 30 C. The following applies: protein: recombinant; tags: N-terminal 3xFLAG-SUMO-TEV in expression construct; tag state after purification not in material; label: 32P 5' end of guide strand (S68); 21 bp, 2 nt 3' overhangs on both strands.

The record followed here is article PMC7528652, “Xrn1p acts at multiple steps in the budding-yeast RNAi pathway to enhance the efficiency of silencing”.

B1: miR-20a siRNA duplex (dsRNA)
RNA 1: UAAAGUGCUUAUAGUGCAGGUAG
RNA 2: ACCUGCACUAUAAGCACUUUAAG
Regarding B1, the binding result is “binds”.
